Data reported in patent US10618965 (dated 2020).
Like-named read-outs stand apart in the source and are kept apart here. Each block holds one binder with its values, some of them ahead of it.

Columns and labels:
[1] = molecular target: human FcRn (with beta2-microglobulin) (human); experiment: SPR, pH 7.0
[2] = molecular target: human FcRn (with beta2-microglobulin) (human); experiment: SPR, pH 7.0; remark: listed apart in the source
[3] = molecular target: human FcRn (with beta2-microglobulin) (human); experiment: SPR, pH 7.0; remark: listed apart in the source
[4] = molecular target: human FcRn (with beta2-microglobulin) (human); experiment: SPR, pH 7.0; remark: listed apart in the source
[5] = molecular target: T1, human IL-6 receptor (human); experiment: SPR, 3 uM CaCl2, 37C
T1 chain: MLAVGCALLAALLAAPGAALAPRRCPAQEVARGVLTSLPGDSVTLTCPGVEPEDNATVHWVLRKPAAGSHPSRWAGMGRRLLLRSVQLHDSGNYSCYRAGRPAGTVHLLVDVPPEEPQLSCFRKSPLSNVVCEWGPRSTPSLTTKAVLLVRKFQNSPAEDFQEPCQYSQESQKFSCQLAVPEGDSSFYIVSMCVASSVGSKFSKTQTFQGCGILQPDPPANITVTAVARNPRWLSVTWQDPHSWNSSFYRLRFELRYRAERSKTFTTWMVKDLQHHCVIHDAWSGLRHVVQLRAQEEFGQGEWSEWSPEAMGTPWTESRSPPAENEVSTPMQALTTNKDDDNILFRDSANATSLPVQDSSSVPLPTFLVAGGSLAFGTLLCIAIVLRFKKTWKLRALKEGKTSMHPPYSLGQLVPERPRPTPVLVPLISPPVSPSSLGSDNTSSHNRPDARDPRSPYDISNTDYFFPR

[6] = molecular target: T1, human IL-6 receptor; experiment: SPR, 3 uM CaCl2, 37C
[7] = molecular target: human FcRn (with beta2-microglobulin) (human); experiment: SPR, pH 7.0; remark: listed apart in the source
[8] = molecular target: T2, mouse FcRn (mouse, UniProt Q61559); experiment: SPR, pH 7.0
T2 chain 1: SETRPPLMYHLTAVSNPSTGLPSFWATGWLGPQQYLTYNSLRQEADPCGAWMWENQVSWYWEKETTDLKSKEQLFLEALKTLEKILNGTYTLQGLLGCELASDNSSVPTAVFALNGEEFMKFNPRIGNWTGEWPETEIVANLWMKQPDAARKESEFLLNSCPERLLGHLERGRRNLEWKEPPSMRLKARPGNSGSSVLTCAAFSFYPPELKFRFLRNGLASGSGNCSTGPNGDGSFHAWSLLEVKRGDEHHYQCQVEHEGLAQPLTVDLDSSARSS
T2 chain 2: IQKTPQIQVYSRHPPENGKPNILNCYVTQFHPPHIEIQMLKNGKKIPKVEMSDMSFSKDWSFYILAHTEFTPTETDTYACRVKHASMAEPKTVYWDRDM

Kd [1]: 11 nM
Kd [2]: 11 nM
Kd [3]: 11 nM
B1: F947 (antibody)
chain 1: QVQLQESGPGLVKPSETLSLTCAVSGHSISHDHAWSWVRQPPGEGLEWIGFISYSGITNYNPSLQGRVTISRDNSKNTLYLQMNSLRAEDTAVYYCARSLARTTAMDYWGEGTLVTVSSASTKGPSVFPLAPSSKSTSGGTAALGCLVKDYFPEPVTVSWNSGALTSGVHTFPAVLQSSGLYSLSSVVTVPSSSLGTQTYICNVNHKPSNTKVDKKVEPKSCDKTHTCPPCPAPELLGGPSVFLFPPKPKDVLYISRTPEVTCVVVDVSHEDPEVKFNWYVDGVEVHNAKTKPREEQYNSTYRVVSVLQPLHADWLNGKEYKCKVSNKALPAPIEKTISKAKGQPREPQVYTLPPSRDELTKNQVSLTCLVKGFYPSDIAVEWESNGQPENNYKTTPPVLDSDGSFFLYSKLTVDKSRWQQGNVFSCSVMHEALHYHVTQKSLSLSP
chain 2: not shown

Kd [2]: 11 nM
Kd [3]: 11 nM
B2: F1326 (antibody)
chain 1: QVQLQESGPGLVKPSETLSLTCAVSGHSISHDHAWSWVRQPPGEGLEWIGFISYSGITNYNPSLQGRVTISRDNSKNTLYLQMNSLRAEDTAVYYCARSLARTTAMDYWGEGTLVTVSSASTKGPSVFPLAPSSKSTSGGTAALGCLVKDYFPEPVTVSWNSGALTSGVHTFPAVLQSSGLYSLSSVVTVPSSSLGTQTYICNVNHKPSNTKVDKKVEPKSCDKTHTCPPCPAPEAAGGPSVFLFPPKPKDVLYISRTPEVTCVVVDVSHEDPEVKFNWYVDGVEVHNAKTKPREEQYNSTYRVVSVLQPLHADWLNGKEYKCKVSNKALPAPIEKTISKAKGQPREPQVYTLPPSRDELTKNQVSLTCLVKGFYPSDIAVEWESNGQPENNYKTTPPVLDSDGSFFLYSKLTVDKSRWQQGNVFSCSVMHEALHYHVTQKSLSLSP
chain 2: not shown

Kd [4]: 140 nM
B3: IgG4-F890 (antibody)
chain 1: QVQLQESGPGLVKPSETLSLTCAVSGHSISHDHAWSWVRQPPGEGLEWIGFISYSGITNYNPSLQGRVTISRDNSKNTLYLQMNSLRAEDTAVYYCARSLARTTAMDYWGEGTLVTVSSASTKGPSVFPLAPCSRSTSESTAALGCLVKDYFPEPVTVSWNSGALTSGVHTFPAVLQSSGLYSLSSVVTVPSSSLGTKTYTCNVDHKPSNTKVDKRVESKYGPPCPPCPAPEFLGGPSVFLFPPKPKDTLYISRTPEVTCVVVDVSQEDPEVQFNWYVDGVEVHNAKTKPREEQFNSTYRVVSVLTVLHQDWLNGKEYKCKVSNKGLPSSIEKTISKAKGQPREPQVYTLPPSQEEMTKNQVSLTCLVKGFYPSDIAVEWESNGQPENNYKTTPPVLDSDGSFFLYSRLTVDKSRWQEGNVFSCSVMHEALHYHVTQKSLSLSL
chain 2: not shown

Kd [5]: ~34000 nM
Kd [6]: > 34000 nM
B4: FH4-IgG1 (antibody, V domains shown)
VH: QVQLVQSGAEVKKPGSSVKVSCKASGGTFSSYAISWVRQAPGQGLEWMGGIIPIFGTANYAQKFQGRVTITADESTSTAYMELSSLRSEDTAVYYCARERDYYDSSGYYDAFDIWGQGTMVTVSS
VL: ETTVTQSPSFLSASVGDRVTITCITTTDIDDDMNWFQQEPGKAPKLLISEGNILRPGVPSRFSSSGYGTDFTLTISKLQPEDFATYYCLQSDNLPFTFGQGTKLEIKR

binding result [7]: no binding
B5: IgG2 (antibody)
chain 1: QVQLQESGPGLVKPSETLSLTCAVSGHSISHDHAWSWVRQPPGEGLEWIGFISYSGITNYNPSLQGRVTISRDNSKNTLYLQMNSLRAEDTAVYYCARSLARTTAMDYWGEGTLVTVSSASTKGPSVFPLAPCSRSTSESTAALGCLVKDYFPEPVTVSWNSGALTSGVHTFPAVLQSSGLYSLSSVVTVPSSNFGTQTYTCNVDHKPSNTKVDKTVERKCCVECPPCPAPPVAGPSVFLFPPKPKDTLMISRTPEVTCVVVDVSHEDPEVQFNWYVDGVEVHNAKTKPREEQFNSTFRVVSVLTVVHQDWLNGKEYKCKVSNKGLPAPIEKTISKTKGQPREPQVYTLPPSREEMTKNQVSLTCLVKGFYPSDIAVEWESNGQPENNYKTTPPMLDSDGSFFLYSKLTVDKSRWQQGNVFSCSVMHEALHNHYTQKSLSLSP
chain 2: not shown

Kd [4]: 140 nM
B6: IgG2-F939 (antibody)
chain 1: QVQLQESGPGLVKPSETLSLTCAVSGHSISHDHAWSWVRQPPGEGLEWIGFISYSGITNYNPSLQGRVTISRDNSKNTLYLQMNSLRAEDTAVYYCARSLARTTAMDYWGEGTLVTVSSASTKGPSVFPLAPCSRSTSESTAALGCLVKDYFPEPVTVSWNSGALTSGVHTFPAVLQSSGLYSLSSVVTVPSSNFGTQTYTCNVDHKPSNTKVDKTVERKCCVECPPCPAPPVRGPKVFLFPPKPKDTLYISRTPEVTCVVVDVSHEDPEVQFNWYVDGVEVHNAKTKPREEQFNSTFRVVSVLTVVHQDWLNGKEYKCKVSNKGLPAPIEKTISKTKGQPREPQVYTLPPSREEMTKNQVSLTCLVKGFYPSDIAVEWESNGQPENNYKTTPPMLDSDGSFFLYSKLTVDKSRWQQGNVFSCSVMHEALHYHVTQKSLSLSP
chain 2: not shown

binding result [8]: no binding
B7: mIgG1 (antibody)
chain 1: DVQLQESGPVLVKPSQSLSLTCTVTGYSITSDHAWSWIRQFPGNKLEWMGYISYSGITTYNPSLKSRISITRDTSKNQFFLQLNSVTTGDTSTYYCARSLARTTAMDYWGQGTSVTVSSAKTTPPSVYPLAPGSAAQTNSMVTLGCLVKGYFPEPVTVTWNSGSLSSGVHTFPAVLQSDLYTLSSSVTVPSSTWPSETVTCNVAHPASSTKVDKKIVPRDCGCKPCICTVPEVSSVFIFPPKPKDVLTITLTPKVTCVVVDISKDDPEVQFSWFVDDVEVHTAQTQPREEQFNSTFRSVSELPIMHQDWLNGKEFKCRVNSAAFPAPIEKTISKTKGRPKAPQVYTIPPPKEQMAKDKVSLTCMITDFFPEDITVEWQWNGQPAENYKNTQPIMDTDGSYFVYSKLNVQKSNWEAGNTFTCSVLHEGLHNHHTEKSLSHSPGK
chain 2: not shown

Kd [5]: ~31000 nM
Kd [6]: > 31000 nM
B8: 6RL#9-IgG1 (antibody, V domains shown)
VH: QVQLVQSGAEVKKPGASVKVSCKASGYTFTSYYMHWVRQAPGQGLEWMGIINPSGGSTSYAQKFQGRVTMTRDTSTSTVYMELSSLRSEDTAVYYCARDDPGGGEYYFDYWGQGTLVTVSS
VL: QSVLTQPPSVSGAPGQRVTISCTGSRSNMGAGYDVHWYQLLPGAAPKLLISHNTHRPSGVPDRFSGSKSGASASLAITGLQAEDEADYYCQSHDSSLSAVVFGGGTKLTVLS
